# B1: Bcl-x G-tracts 1-2 RNA (structured_RNA)
# RNA: CGGGAUGGGGUA
# B2: Fox RNA-binding site UGCAUG (ssRNA)
# RNA: UGCAUG
# B3: GGG RNA (ssRNA)
# RNA: GGG
# B4: Bcl-x third G-tract RNA (structured_RNA)
# RNA: CUGGGGU
# What was measured:
# Assay in all cases: NMR titration
# [1] = biological target: T1, hnRNP F qRRM1-2 (Homo sapiens, UniProt P52597 1-194)
# T1 sequence: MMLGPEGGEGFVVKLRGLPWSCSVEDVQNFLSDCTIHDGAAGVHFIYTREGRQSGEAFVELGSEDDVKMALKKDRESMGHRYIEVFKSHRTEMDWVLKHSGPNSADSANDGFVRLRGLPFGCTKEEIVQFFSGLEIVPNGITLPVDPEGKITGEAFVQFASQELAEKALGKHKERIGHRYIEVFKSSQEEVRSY
# [2] = biological target: T2, hnRNP F qRRM2 (Homo sapiens, UniProt P52597 103-194)
# T2 sequence: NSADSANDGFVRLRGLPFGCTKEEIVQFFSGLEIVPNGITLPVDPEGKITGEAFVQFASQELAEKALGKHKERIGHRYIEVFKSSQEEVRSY
# [3] = biological target: T3, hnRNP F qRRM3 (Homo sapiens, UniProt P52597 277-381)
# T3 sequence: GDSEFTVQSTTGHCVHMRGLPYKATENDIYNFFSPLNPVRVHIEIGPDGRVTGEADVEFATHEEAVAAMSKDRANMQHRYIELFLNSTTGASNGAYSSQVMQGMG
Binder,binding result [2],also measured
B1,–,binding result [1]: binds
B2,no binding,–
B3,binds,–
B4,–,binding result [3]: no binding

# — paper PMC1540728
